Measured values as given in PMC5303829, “A CAF40-binding motif facilitates recruitment of the CCR4-NOT complex to mRNAs targeted by Drosophila Roquin” (Nature Communications, 2017).

Key:
Settings in all cases: both partners purified
[1] = target: T1, Hs CAF40 ARM domain (residues 19–285) (human, UniProt Q92600 19-285); experiment: crystal structure; synthetic CBM peptide mixed with the purified Hs CAF40 ARM domain in an equimolar ratio; 0.1 M NaOAc pH 5.0, 17.5% PEG 4000, 0.1 M AmSO4, 18 °C; 2.15 Å
T1 construct: CAF40 (CNOT9) armadillo repeat domain, human, residues 19–285; also called CNOT9; purified CAF40 protein; source: E. coli BL21 (DE3) Star, purified (IMAC, heparin, gel filtration)

[2] = target: T2, Hs NOT module (NOT1-SHD, NOT2-C, NOT3-C) (human, UniProt A5YKK6 1833-2361; Q9NZN8 350-540; O75175 607-748); experiment: pull-down; in vitro MBP pulldown: purified MBP-tagged Roquin fragments (40 μg) with equimolar purified CCR4-NOT proteins or subcomplexes on amylose resin; 50 mM HEPES-NaOH pH 7.5, 200 mM NaCl, 2 mM DTT; 1 h; maltose elution, SDS-PAGE, Coomassie
T2 construct: NOT1 superfamily homology domain (SHD), human, residues 1833–2361; NOT2-C, human, residues 350–540; NOT3-C, human, residues 607–748; also called NOT1-2-3; source: E. coli, purified as previously described; copies: + +

[3] = target: T1, Hs CAF40 ARM domain (residues 19–285); experiment: as above

T1 sequence (Q92600 19-285): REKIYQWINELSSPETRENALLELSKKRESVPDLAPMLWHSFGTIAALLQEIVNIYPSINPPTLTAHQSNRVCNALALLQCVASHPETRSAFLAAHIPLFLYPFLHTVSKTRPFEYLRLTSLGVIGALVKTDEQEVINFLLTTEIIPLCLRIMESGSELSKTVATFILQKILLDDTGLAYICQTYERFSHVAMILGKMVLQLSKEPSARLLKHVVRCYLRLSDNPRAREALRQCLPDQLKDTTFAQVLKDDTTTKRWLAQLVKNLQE
T2 sequence (A5YKK6 1833-2361, chain 1 of 3): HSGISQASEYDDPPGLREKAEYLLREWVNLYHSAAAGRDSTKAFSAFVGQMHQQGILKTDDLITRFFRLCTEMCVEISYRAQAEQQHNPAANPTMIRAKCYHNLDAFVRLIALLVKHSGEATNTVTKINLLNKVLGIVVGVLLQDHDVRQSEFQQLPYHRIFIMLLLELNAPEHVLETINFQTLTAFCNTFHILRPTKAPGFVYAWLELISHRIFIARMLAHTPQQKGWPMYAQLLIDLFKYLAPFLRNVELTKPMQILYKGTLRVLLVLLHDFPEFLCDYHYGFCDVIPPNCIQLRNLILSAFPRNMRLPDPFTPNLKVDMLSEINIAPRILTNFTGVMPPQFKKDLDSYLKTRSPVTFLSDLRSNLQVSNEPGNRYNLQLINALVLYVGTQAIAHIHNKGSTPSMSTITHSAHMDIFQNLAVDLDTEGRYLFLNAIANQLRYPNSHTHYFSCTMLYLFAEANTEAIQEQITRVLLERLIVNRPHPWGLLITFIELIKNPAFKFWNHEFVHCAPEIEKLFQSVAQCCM
T2 sequence (Q9NZN8 350-540, chain 2 of 3): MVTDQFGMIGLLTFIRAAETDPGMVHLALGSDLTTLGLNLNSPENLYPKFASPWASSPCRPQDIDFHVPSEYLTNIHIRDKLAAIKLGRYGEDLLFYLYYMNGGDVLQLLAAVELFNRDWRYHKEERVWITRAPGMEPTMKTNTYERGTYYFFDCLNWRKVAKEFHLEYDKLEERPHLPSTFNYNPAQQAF
T2 sequence (O75175 607-748, chain 3 of 3): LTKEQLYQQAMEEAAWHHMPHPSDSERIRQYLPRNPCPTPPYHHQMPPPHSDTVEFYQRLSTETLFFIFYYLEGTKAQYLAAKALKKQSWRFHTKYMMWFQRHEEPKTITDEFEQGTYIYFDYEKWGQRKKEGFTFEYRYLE

B1: Dm Roquin CBM peptide (residues 790–810) (peptide, UniProt Q9VV48 790-810, looked up)
peptide: EGGIDSGMMLQLEKNLVDIVD
notes: also called Dm CBM; source: synthetic peptide (EMC Microcollections)
binding result [1]: binds

B2: MBP-tagged Dm Roq-CN (domain or fragment, Drosophila melanogaster, UniProt Q9VV48 501-702, looked up)
chain: HYMGSPRGYLDPSLGLSPGGGLPPSHHSPITRLIVPSRYDSRFSGFGGGTPRIPSPREYQANPVAPTQRNANPPNFSVNSNLHKGYMLPASGGDVFHLANPWEQAYLAQQQHPPQHPQQQQPPSSKPNPSRPLSILPATADTSFFEKKPPNSVSIDLDRVPEVNVDAVPLFRRSNNNHNNNNSNSHNNNNNNHGSSLLFWNN
notes: source: E. coli BL21 (DE3) Star, purified; not shown: MBP, N-terminal, kept
binding result [2]: binds

B3: MBP-tagged Dm Roquin CBM alone (peptide, UniProt Q9VV48 790-812, looked up)
chain: EGGIDSGMMLQLEKNLVDIVDPD
notes: as for B2
binding result [3]: binds

B4: MBP-tagged Dm Roq-CC (domain or fragment, Drosophila melanogaster, UniProt Q9VV48 702-819, looked up)
chain: NTGKDSANFVRSDSILDDDASTFDVPTGSSMLSIYGPICPKSSTTGNWNNFDLGYGGFKSDRNDSFNANKQQQPMWGRKPQLMSEDSFEGGIDSGMMLQLEKNLVDIVDPDDSGIKVD
notes: also called MBP-Roq-CC; not shown: MBP, N-terminal, kept
binding result [2]: binds | binding result [3]: binds
